Biological target: T1, FLAG-BirA(R118G)-TBL1XR1 Y446S (human, UniProt Q9BZK7 1-514, Y446S)
T1 sequence (looked up): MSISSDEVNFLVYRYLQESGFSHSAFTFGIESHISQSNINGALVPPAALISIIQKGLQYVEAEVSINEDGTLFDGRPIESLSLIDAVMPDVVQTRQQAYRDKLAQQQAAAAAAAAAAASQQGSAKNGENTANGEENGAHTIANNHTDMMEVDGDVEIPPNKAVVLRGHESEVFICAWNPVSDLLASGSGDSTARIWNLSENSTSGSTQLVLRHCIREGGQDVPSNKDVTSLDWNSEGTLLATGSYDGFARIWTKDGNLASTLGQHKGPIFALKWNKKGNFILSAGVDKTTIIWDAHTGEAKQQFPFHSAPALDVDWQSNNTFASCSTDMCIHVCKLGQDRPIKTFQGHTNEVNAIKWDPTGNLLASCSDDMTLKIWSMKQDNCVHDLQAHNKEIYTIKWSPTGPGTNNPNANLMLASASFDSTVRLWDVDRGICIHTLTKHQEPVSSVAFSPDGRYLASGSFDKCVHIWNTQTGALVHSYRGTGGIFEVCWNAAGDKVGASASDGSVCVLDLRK
Test: proximity labelling

fold gain of interaction against TBL1XR1 WT: ~6 fold
B1: BACH2 (endogenous) (natural protein)
chain: not shown

From PMC7384961 (Cell, 2020)
